Test results reported in the RNAGym collection of RNA variant scans (doi:10.7554/elife.90254).

B1: LINE1-full (parent)
chain: UACGUAGGUGGUUUUCCCCUGAUAGUGCUAAGGGGGCCUGGAAGUUUGGACUGGGCAGAGCUCAACACAGCGUGGCAAAGUGGCUGUGGCUAGACUGCCUCUCUGGAUUCCUCGUCACUCAGCAGGGCAUCUCUGAGAGAAAUGCC

Variants of: B1
Assay: self-cleavage, relative activity (ratio to wild type); higher = more cleavage; in vitro, sequencing; the parent is a self-cleaving ribozyme
With UACGUAGGUGGUUUUCCCCUGAUAGUGCUAAGGGGGCCUGGAAGUCUGGACUGGGCAGAGCUCAACACCGCGUGGCAAAGUGGCUGUGGCUAGACUGCCUCUCUGGAUUCCUCGUCACUCAGCAGGGCAUCUCUGAGAGAAAUGCC [U46C A69C] the self-cleavage was 0.
For UACGUAGGUGGUUUUCCCCUGAUAGUGCUAAGGGGGCCUGGAAGUAUGGACUGGGCAGAGCUCAACACAACGUGGCAAAGUGGCUGUGGCUAGACUGCCUCUCUGGAUUCCUCGUCACUCAGCAGGGCAUCUCUGAGAGAAAUGCC [U46A G70A], the self-cleavage was 0.24.
With UACGUAGGUGGUUUUCCCCUGAUAGUGCUAAGGGGGCCUGGAAGUAUGGACUGGGCAGAGCUCAACACAGCGUGGCAAAGUGGCUGUGGCUAGACUGCCUCUCUGGAUUCCUCGUCACUCAGCAGGGCAUCUCUGAGAGAAACGCC [U46A U143C] the self-cleavage was 1.38.
With UACGUAGGUGGUUUUCCCCUGAUAGUGCUAAGGGGGCCUGGAAGUAUGGACUGGGCAGAGCUCAACACAGCGUGUCAAAGUGGCUGUGGCUAGACUGCCUCUCUGGAUUCCUCGUCACUCAGCAGGGCAUCUCUGAGAGAAAUGCC [U46A G75U] the self-cleavage was 0.84.
UACGUAGGUGGUUUUCCCCUGAUAGUGCUAAGGGGGCCUGGAAGUAUGGACUGGGCAGAGCUCAACACAGCGUGACAAAGUGGCUGUGGCUAGACUGCCUCUCUGGAUUCCUCGUCACUCAGCAGGGCAUCUCUGAGAGAAAUGCC [U46A G75A] gave a self-cleavage of 0.9.
UACGUAGGUGGUUUUCCCCUGAUAGUGCUAAGGGGGCCUGGAAGUAUGGACGGGGCAGAGCUCAACACAGCGUGGCAAAGUGGCUGUGGCUAGACUGCCUCUCUGGAUUCCUCGUCACUCAGCAGGGCAUCUCUGAGAGAAAUGCC [U46A U52G] gave a self-cleavage of 1.33.
UACGUAGGUGGUUUUCCCCUGAUAGUGCUAAGGGGGCCUGGAAGUAUGGACCGGGCAGAGCUCAACACAGCGUGGCAAAGUGGCUGUGGCUAGACUGCCUCUCUGGAUUCCUCGUCACUCAGCAGGGCAUCUCUGAGAGAAAUGCC [U46A U52C] gave a self-cleavage of 1.56.
For UACGUAGGUGGUUUUCCCCUGAUAGUGCUAAGGGGGCCUGGAAGUCUGGACUGGGCAGGGCUCAACACAGCGUGGCAAAGUGGCUGUGGCUAGACUGCCUCUCUGGAUUCCUCGUCACUCAGCAGGGCAUCUCUGAGAGAAAUGCC [U46C A59G], the self-cleavage was 0.16.
For UACGUAGGUGGUUUUCCCCUGAUAGUGCUAAGGGGGCCUGGAAGUAUGGACUGGGCAGAGCUCAACACAGCGUGGCAAAGUGGCUGUGGCUAGACUGCCUCUCUGGACUCCUCGUCACUCAGCAGGGCAUCUCUGAGAGAAAUGCC [U46A U108C], the self-cleavage was 1.37.
In the case of UACGUAGGUGGUUUUCCCCUGAUAGUGCUAAGGGGGCCUGGAAGUAUGGACUGGGCAGAGCUCAACACAGCGUGGCAAAGUGGCUGUGGCUAGACUGCCUCUCUGGAUUCCUCGUCACUCAGCAGGGCAUCUCUGAGAGAAGUGCC [U46A A142G], the self-cleavage is reported as 1.45.
For UACGUAGGUGGUUUUCCCCUGAUAGUGCUAAGGGGGCCUGGAAGUAUGGACUGGGCAGAGCUCAACACAGCGUGGCAAAGUGGCUGCGGCUAGACUGCCUCUCUGGAUUCCUCGUCACUCAGCAGGGCAUCUCUGAGAGAAAUGCC [U46A U87C], the self-cleavage was 0.19.
UACGUAGGUGGUUUUCCCCUGAUAGUGCUAAGGGGGCCUGGAAGUCUGGACUGGGCAGAGCUCGACACAGCGUGGCAAAGUGGCUGUGGCUAGACUGCCUCUCUGGAUUCCUCGUCACUCAGCAGGGCAUCUCUGAGAGAAAUGCC [U46C A64G] gave a self-cleavage of 0.38.
With UACGUAGGUGGUUUUCCCCUGAUAGUGCUAAGGGGGCCUGGAAGUAUGGACUGGGCAGAGCUCAACACAGCGUGGCAAAGUGGCUGUGGCUAGACUGCCUCUCUGGAUUCCUCGUCACUCAGCAGGGCAUCUCUGAGAGUAAUGCC [U46A A140U] the self-cleavage was 1.12.
In the case of UACGUAGGUGGUUUUCCCCUGAUAGUGCUAAGGGGGCCUGGAAGUAUGGACUGGGCAGAGCUCAACACAGCGUGGCAAAGUGGCUGUGGCUAGACCGCCUCUCUGGAUUCCUCGUCACUCAGCAGGGCAUCUCUGAGAGAAAUGCC [U46A U96C], the self-cleavage is reported as 0.19.
In the case of UACGUAGGUGGUUUUCCCCUGAUAGUGCUAAGGGGGCCUGGAAGUAUGGACUGGGCAGAGCUCAACACAGCGUGGCAAAGUGGCUGUGGCUAGACUGCCUCUCAGGAUUCCUCGUCACUCAGCAGGGCAUCUCUGAGAGAAAUGCC [U46A U104A], the self-cleavage is reported as 0.9.
For UACGUAGGUGGUUUUCCCCUGAUAGUGCUAAGGGGGCCUGGAAGUAUGGACUGGGCAGAGCUCAACACAGCGUGGCAAAGUGGCUGUGGCUAGACUGCCUCUCUGGAUUCCUCGUCACUCAGCAGGGCAUCUCUGAGAGAAAUGCU [U46A C146U], the self-cleavage was 1.63.
Variant UACGUAGGUGGUUUUCCCCUGAUAGUGCUAAGGGGGCCUGGAAGUAUGGACUGGGCAGAGCUCAACACAGCGUGGCAAAGUGGCUGUGGCUAGACUGCCUCUCUGGAUUCCUCGUCACUCAGCAGGGCAUCUCUGAAAGAAAUGCC [U46A G137A] has a self-cleavage of 0.98.
Work on UACGUAGGUGGUUUUCCCCUGAUAGUGCUAAGGGGGCCUGGAAGUCUGGACUGGGCAGAGCUCAACUCAGCGUGGCAAAGUGGCUGUGGCUAGACUGCCUCUCUGGAUUCCUCGUCACUCAGCAGGGCAUCUCUGAGAGAAAUGCC [U46C A67U] yielded a self-cleavage of 0.12.
Variant UACGUAGGUGGUUUUCCCCUGAUAGUGCUAAGGGGGCCUGGAAGUAUGGACUGGGCAGAGCUCAACACAGCGUGGCAAAGUGGCUGUGGCUAGACUGCCUCUCUGGAUUCCUCGUCACUCAGCAGGGCAGCUCUGAGAGAAAUGCC [U46A U130G] has a self-cleavage of 1.39.
UACGUAGGUGGUUUUCCCCUGAUAGUGCUAAGGGGGCCUGGAAGUAUGGACUGGGCAGAGCUCAACACAGCGUGGCAAAGUGGCUGUGGCUAGACUGCCUCUCUGGAUUCCUCAUCACUCAGCAGGGCAUCUCUGAGAGAAAUGCC [U46A G114A] showed a self-cleavage of 1.08.
UACGUAGGUGGUUUUCCCCUGAUAGUGCUAAGGGGGCCUGGAAGUCUGGACUGGGCCGAGCUCAACACAGCGUGGCAAAGUGGCUGUGGCUAGACUGCCUCUCUGGAUUCCUCGUCACUCAGCAGGGCAUCUCUGAGAGAAAUGCC [U46C A57C] gave a self-cleavage of 0.31.
UACGUAGGUGGUUUUCCCCUGAUAGUGCUAAGGGGGCCUGGAAGUCUGGACUGGGCGGAGCUCAACACAGCGUGGCAAAGUGGCUGUGGCUAGACUGCCUCUCUGGAUUCCUCGUCACUCAGCAGGGCAUCUCUGAGAGAAAUGCC [U46C A57G] gave a self-cleavage of 1.04.
For UACGUAGGUGGUUUUCCCCUGAUAGUGCUAAGGGGGCCUGGAAGUAUGGACUGGACAGAGCUCAACACAGCGUGGCAAAGUGGCUGUGGCUAGACUGCCUCUCUGGAUUCCUCGUCACUCAGCAGGGCAUCUCUGAGAGAAAUGCC [U46A G55A], the self-cleavage was 0.24.
Work on UACGUAGGUGGUUUUCCCCUGAUAGUGCUAAGGGGGCCUGGAAGUCUGGUCUGGGCAGAGCUCAACACAGCGUGGCAAAGUGGCUGUGGCUAGACUGCCUCUCUGGAUUCCUCGUCACUCAGCAGGGCAUCUCUGAGAGAAAUGCC [U46C A50U] yielded a self-cleavage of 1.26.
UACGUAGGUGGUUUUCCCCUGAUAGUGCUAAGGGGGCCUGGAAGUAUGGACUGGGCAGAGCUCAACACAGCGAGGCAAAGUGGCUGUGGCUAGACUGCCUCUCUGGAUUCCUCGUCACUCAGCAGGGCAUCUCUGAGAGAAAUGCC [U46A U73A] gave a self-cleavage of 1.35.
Work on UACGUAGGUGGUUUUCCCCUGAUAGUGCUAAGGGGGCCUGGAAGUAUGGACUGGGCAGAGCUCAACACAGCGCGGCAAAGUGGCUGUGGCUAGACUGCCUCUCUGGAUUCCUCGUCACUCAGCAGGGCAUCUCUGAGAGAAAUGCC [U46A U73C] yielded a self-cleavage of 1.5.
UACGUAGGUGGUUUUCCCCUGAUAGUGCUAAGGGGGCCUGGAAGUAUGGACUGGGCAGAGCUCAACACAGCGUGGCAAAGUGGCUGUGGCUAGACUGCCUCUCUGGAUUCCUCGUCACUCAGCAGGGCAUCCCUGAGAGAAAUGCC [U46A U132C] gave a self-cleavage of 1.32.
UACGUAGGUGGUUUUCCCCUGAUAGUGCUAAGGGGGCCUGGAAGUAUGGACUGGGCAGAGCUCAACACAGCGUGGCAAAGUGGCUGUGGCUAGACUGCCUCUCUGGAUUCCUCGUCACUCAGCAGGGCAUCUCCGAGAGAAAUGCC [U46A U134C] gave a self-cleavage of 1.84.
In the case of UACGUAGGUGGUUUUCCCCUGAUAGUGCUAAGGGGGCCUGGAAGUAUGGACUGGGCAGAGCUCAACACAGCGUGGCAAAGUGGCUGUGGCUAGACUGCCUCUCUGGAUUCCUUGUCACUCAGCAGGGCAUCUCUGAGAGAAAUGCC [U46A C113U], the self-cleavage is reported as 1.16.
With UACGUAGGUGGUUUUCCCCUGAUAGUGCUAAGGGGGCCUGGAAGUAUGGACUGGGCAGAGCCCAACACAGCGUGGCAAAGUGGCUGUGGCUAGACUGCCUCUCUGGAUUCCUCGUCACUCAGCAGGGCAUCUCUGAGAGAAAUGCC [U46A U62C] the self-cleavage was 0.05.
Variant UACGUAGGUGGUUUUCCCCUGAUAGUGCUAAGGGGGCCUGGAAGUAUGGACUGGGCAGAGCUCAACAUAGCGUGGCAAAGUGGCUGUGGCUAGACUGCCUCUCUGGAUUCCUCGUCACUCAGCAGGGCAUCUCUGAGAGAAAUGCC [U46A C68U] has a self-cleavage of 0.07.
With UACGUAGGUGGUUUUCCCCUGAUAGUGCUAAGGGGGCCUGGAAGUAUGGACUGGGCAGAGCUCAACACAGCGUGGCAAAGUGGCUGUGGCCAGACUGCCUCUCUGGAUUCCUCGUCACUCAGCAGGGCAUCUCUGAGAGAAAUGCC [U46A U91C] the self-cleavage was 0.63.
In the case of UACGUAGGUGGUUUUCCCCUGAUAGUGCUAAGGGGGCCUGGAAGUAAGGACUGGGCAGAGCUCAACACAGCGUGGCAAAGUGGCUGUGGCUAGACUGCCUCUCUGGAUUCCUCGUCACUCAGCAGGGCAUCUCUGAGAGAAAUGCC [U46A U47A], the self-cleavage is reported as 1.09.
In the case of UACGUAGGUGGUUUUCCCCUGAUAGUGCUAAGGGGGCCUGGAAGUACGGACUGGGCAGAGCUCAACACAGCGUGGCAAAGUGGCUGUGGCUAGACUGCCUCUCUGGAUUCCUCGUCACUCAGCAGGGCAUCUCUGAGAGAAAUGCC [U46A U47C], the self-cleavage is reported as 1.13.
UACGUAGGUGGUUUUCCCCUGAUAGUGCUAAGGGGGCCUGGAAGUAUGGACUGGGCAGAGCUCAACACAGCGUGGCAAAGUGGCUGUGGCUAGACUGCCUCUCUGGAUUCCUCGUCACUCAGCACGGCAUCUCUGAGAGAAAUGCC [U46A G125C] showed a self-cleavage of 1.35.
With UACGUAGGUGGUUUUCCCCUGAUAGUGCUAAGGGGGCCUGGAAGUAUGGACUGGGCAGAGCUCAACACAGCGUGGCAAAGUGGCUGUGGCUAGACUGCCUCUCUGGAUUCCUCGUCACCCAGCAGGGCAUCUCUGAGAGAAAUGCC [U46A U119C] the self-cleavage was 0.92.
Work on UACGUAGGUGGUUUUCCCCUGAUAGUGCUAAGGGGGCCUGGAAGUAUGGACUGGGCAGAGCUCAACACAGAGUGGCAAAGUGGCUGUGGCUAGACUGCCUCUCUGGAUUCCUCGUCACUCAGCAGGGCAUCUCUGAGAGAAAUGCC [U46A C71A] yielded a self-cleavage of 0.25.
With UACGUAGGUGGUUUUCCCCUGAUAGUGCUAAGGGGGCCUGGAAGUAUGGACUGGGCAGAGCUCAACACAGCGUGGCAAAGUGGCUGUGGCUAGACUGCCUCUCUGGAUUCCUCGUCACUCAGCAGGGCAUCUCUGAGAGAUAUGCC [U46A A141U] the self-cleavage was 1.01.
With UACGUAGGUGGUUUUCCCCUGAUAGUGCUAAGGGGGCCUGGAAGUAUGGACUGGGCAGAGCUCAACACAGCGUGGCAAAGUGGCUGUGGCUAGACUGCCUCUCUGGAUUCCUCGUCACUCAGCAGGGCAUCUCUGAGAGAGAUGCC [U46A A141G] the self-cleavage was 1.36.
